Experimental data from PMC2753473.
Where two headings read alike, the source gives them in different places.

Assays:
[1] = target: photoactivated rhodopsin (Rho*, Meta II) (bovine) (UniProt P02699); test: SEC
[2] = target: photoactivated rhodopsin (Rho*, Meta II) (bovine) (UniProt P02699); test: SEC; remark: listed apart in the source

photoactivated rhodopsin (Rho*, Meta II) (bovine), sequence (P02699 whole entry): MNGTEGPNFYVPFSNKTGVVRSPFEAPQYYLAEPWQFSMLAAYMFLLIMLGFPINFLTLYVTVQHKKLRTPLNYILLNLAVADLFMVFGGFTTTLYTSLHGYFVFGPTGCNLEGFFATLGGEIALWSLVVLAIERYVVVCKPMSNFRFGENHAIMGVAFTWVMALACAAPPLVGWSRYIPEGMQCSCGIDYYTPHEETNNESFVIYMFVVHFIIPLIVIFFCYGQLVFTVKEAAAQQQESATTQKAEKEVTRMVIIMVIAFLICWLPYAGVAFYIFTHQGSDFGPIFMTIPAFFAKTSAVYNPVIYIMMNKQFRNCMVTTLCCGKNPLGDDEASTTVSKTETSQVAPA

stoichiometry N (Rho*:Gt molar ratio) [1]: 1
stoichiometry N (Rho*:Gt molar ratio) [2]: 1
Substance: transducin (Gt), rod cell-specific heterotrimeric G protein (from UniProt P04695 1-350; P62871 1-340; P02698 1-74) (complex)
